We go through five molecules from US7226791B2, “Polynucleotides encoding novel guanylate binding proteins (GBP's)” (Bristol-Myers Squibb Company, priority 2003, dated 2007).

Conditions in all cases: myc-tagged protein expressed in Cos-7 cells; FIG. 49
Assay [1] is described as follows: Guanine nucleotide binding: Cos-7 lysates on agarose coated with GMP, myc western blot. As for the experimental part: (§1) Genes encoding different GBP family members were cloned into the vector pcDNA3.1mychis (Invitrogen) for expression in mammalian cells. Cos-7 cells were transfected with 5 μg of DNA per group using lipofectamine 2000 (Invitrogen) according to manufacturer's instructions. Approximately 18 hours after transfection, the cells were harvested using trypsin and lysed in RIPA buffer (10 mM sodium phosphate pH 7.2, 0.25 M sodium chloride, 0.1% SDS, 1% NP40, 1% sodium deoxycholate, 2 mM EDTA, protease inhibitor cocktail). An aliquot of the lysate was reserved for the whole cell lysate sample. The remainder was divided in thirds, and incubated for three hours at 4° C. with agarose coated with either GTP, GDP, or GMP (Sigma Chemical Company). The beads were pelleted, washed with buffer (0.1% NP40, 150 mM NaCl, 50 mM Tris pH7.5), and resuspended in SDS sample buffer. Samples were electrophoresed through 4–20% tris-glycine gels, transferred to nitrocellulose, blocked overnight with 5% non-fat dry milk and 0.3% BSA in Tris-buffered saline, and probed with a mouse monoclonal antibody specific for the myc epitope tag (Invitrogen).
For orientation: A western blot detects proteins with antibodies after separation by electrophoresis.

The nature of assay [2]: Guanine nucleotide binding: Cos-7 lysates on agarose coated with GTP, myc western blot. As for the experimental part:
as §1

Assay [3] in a line: Guanine nucleotide binding: Cos-7 lysates on agarose coated with GDP, myc western blot. The protocol: as §1

B1: GBP-1: known guanylate binding protein family member, myc-tagged, expressed in Cos-7 cells (protein, UniProt P32455 1-589, looked up)
Guanylate-binding protein 1: MASEIHMTGPMCLIENTNGRLMANPEALKILSAITQPMVVVAIVGLYRTGKSYLMNKLAGKKKGFSLGSTVQSHTKGIWMWCVPHPKKPGHILVLLDTEGLGDVEKGDNQNDSWIFALAVLLSSTFVYNSIGTINQQAMDQLYYVTELTHRIRSKSSPDENENEVEDSADFVSFFPDFVWTLRDFSLDLEADGQPLTPDEYLTYSLKLKKGTSQKDETFNLPRLCIRKFFPKKKCFVFDRPVHRRKLAQLEKLQDEELDPEFVQQVADFCSYIFSNSKTKTLSGGIQVNGPRLESLVLTYVNAISSGDLPCMENAVLALAQIENSAAVQKAIAHYEQQMGQKVQLPTETLQELLDLHRDSEREAIEVFIRSSFKDVDHLFQKELAAQLEKKRDDFCKQNQEASSDRCSALLQVIFSPLEEEVKAGIYSKPGGYRLFVQKLQDLKKKYYEEPRKGIQAEEILQTYLKSKESMTDAILQTDQTLTEKEKEIEVERVKAESAQASAKMLQEMQRKNEQMMEQKERSYQEHLKQLTEKMENDRVQLLKEQERTLALKLQEQEQLLKEGFQKESRIMKNEIQDLQTKMRRRKAC
modifications: myc tag
In the case of B1, the “binding to GMP agarose beads” value in assay [1] is “bound well”. For the same molecule, in assay [2], the “binding to GTP agarose beads” value was “bound well”. Further, the “binding to GDP agarose beads” value in assay [3] was “bound well”.

B2: FLJ10961: human guanylate binding protein HGBPBMY4, AA SEQ ID NO:9 (protein, listed as Homo sapiens)
chain: MAPEIHMTGPMCLIENTNGELVANPEALKILSAITQPVVVVAIVGLYRTGKSYLMNKLAGKNKGFSLGSTVKSHTKGIWMWCVPHPKKPEHTLVLLDTEGLGDVKKGDNQNDSWIFTLAVLLSSTLVYNSMGTINQQAMDQLYYVTELTHRIRSKSSPDENENEDSADFVSFFPDFVWTLRDFSLDLEADGQPLTPDEYLEYSLKLTQGNRKLAQLEKLQDEELDPEFVQQVADFCSYIFSNSKTKTLSGGIKVNGPCLESLVLTYINAISRGDLPCMENAVLALAQIENSAAVQKAIAHYDQQMGQKVQLPAETLQELLDLHRVSEREATEVYMKNSFKDVDHLFQKKLAAQLDKKRDDFCKQNQEASSDRCSALLQVIFSPLEEEVKAGIYSKPGGYCLFIQKLQDLEKKYYEEPRKGIQAEEILQTYLKSKESVTDAILQTDQILTEKEKEIEVECVKAESAQASAKMVEEMQIKYQQMMEEKEKSYQEHVKQLTEKMERERAQLLEEQEKTLTSKLQEQARVLKERCQGESTQLQNEIQKLQKTLKKKTKRYMSHKLKI
As for B2, in assay [1], the “binding to GMP agarose beads” value was “bound well”. Also, in assay [2], the “binding to GTP agarose beads” value is “weakly”. The “binding to GDP agarose beads” value in assay [3] is given as “bound well”.

B3: AK096141: human guanylate binding protein HGBPBMY1, AA SEQ ID NO:3 (protein, listed as Homo sapiens)
chain: MASEIHMPGPVCLIENTKGHLVVNSEALEILSAITQPVVVVAIVGLYRTGKSYLMNKLAGKNKGFPLGCTVKSETKGIWMWCVPHPSKPNHTLILLDTEGLGDMEKSDPKSDSWIFALAVLLSSSFVYNSMGTINHQALEQLHYVTELTELIRAKSCPRPDEVEDSSEFVSFFPDFIWTVRDFTLELKLDGHPITEDEYLENALKLISGKNPQIQNSNKPREWIRHFFPKQKCFVFDRPINDKKLLLHVEEVREDQLDSNFQMQSENFCSYIFTHAKTKTLREGILVTGNRLGMLVETYLDAINSGATPCLENAMAVLAQCENSAAVQRAANHYSQQMAQQVRFPTDTLQELLDVHAVCEREAIAVFMEYSFKDKSQEFQKKLVDTMEKKKEDFVLQNEEASAKYCQAELKRLSELLTESISRGTFFVPGGHNIYLEAKKKIEQDYTLVPRKGVKADEVLQSFLQSQVVIEESILQSDKALTAGEKAIAAKQAKKEAAEKEQELLRQKQKEQQQMMEAQERSFQENIAQLKKKMERERENYMRELRKMLSHKMKVLEELLTEGFKEIFESLNEEINRLKEQIEAAENEEPSVFSQILDVAGSIFIAALPGAAKLVDLGMKILSSLCNRLRNPGKKIIS
In the case of B3, the “binding to GMP agarose beads” value in assay [1] is on record as “bound weakly”. Besides, the “binding to GTP agarose beads” value in assay [2] is “not at all”. Further, the “binding to GDP agarose beads” value in assay [3] is reported as “bound weakly”.

B4: GBP-5: known guanylate binding protein family member, myc-tagged, expressed in Cos-7 cells (protein, UniProt Q96PP8 1-583, looked up)
Guanylate-binding protein 5: MALEIHMSDPMCLIENFNEQLKVNQEALEILSAITQPVVVVAIVGLYRTGKSYLMNKLAGKNKGFSVASTVQSHTKGIWIWCVPHPNWPNHTLVLLDTEGLGDVEKADNKNDIQIFALALLLSSTFVYNTVNKIDQGAIDLLHNVTELTDLLKARNSPDLDRVEDPADSASFFPDLVWTLRDFCLGLEIDGQLVTPDEYLENSLRPKQGSDQRVQNFNLPRLCIQKFFPKKKCFIFDLPAHQKKLAQLETLPDDELEPEFVQQVTEFCSYIFSHSMTKTLPGGIMVNGSRLKNLVLTYVNAISSGDLPCIENAVLALAQRENSAAVQKAIAHYDQQMGQKVQLPMETLQELLDLHRTSEREAIEVFMKNSFKDVDQSFQKELETLLDAKQNDICKRNLEASSDYCSALLKDIFGPLEEAVKQGIYSKPGGHNLFIQKTEELKAKYYREPRKGIQAEEVLQKYLKSKESVSHAILQTDQALTETEKKKKEAQVKAEAEKAEAQRLAAIQRQNEQMMQERERLHQEQVRQMEIAKQNWLAEQQKMQEQQMQEQAAQLSTTFQAQNRSLLSELQHAQRTVNNDDPC
modifications: myc tag
On to B4, for which, in assay [1], the “binding to GMP agarose beads” value was “bound well”. For the same molecule, in assay [2], the “binding to GTP agarose beads” value was “weakly”. Moreover, the “binding to GDP agarose beads” value in assay [3] is given as “bound well”.

B5: GBP-2: known guanylate binding protein family member, myc-tagged, expressed in Cos-7 cells (protein, UniProt P32456 1-588, looked up)
Guanylate-binding protein 2: MAPEINLPGPMSLIDNTKGQLVVNPEALKILSAITQPVVVVAIVGLYRTGKSYLMNKLAGKKNGFSLGSTVKSHTKGIWMWCVPHPKKPEHTLVLLDTEGLGDIEKGDNENDSWIFALAILLSSTFVYNSMGTINQQAMDQLHYVTELTDRIKANSSPGNNSVDDSADFVSFFPAFVWTLRDFTLELEVDGEPITADDYLELSLKLRKGTDKKSKSFNDPRLCIRKFFPKRKCFVFDWPAPKKYLAHLEQLKEEELNPDFIEQVAEFCSYILSHSNVKTLSGGIPVNGPRLESLVLTYVNAISSGDLPCMENAVLALAQIENSAAVEKAIAHYEQQMGQKVQLPTETLQELLDLHRDSEREAIEVFMKNSFKDVDQMFQRKLGAQLEARRDDFCKQNSKASSDCCMALLQDIFGPLEEDVKQGTFSKPGGYRLFTQKLQELKNKYYQVPRKGIQAKEVLKKYLESKEDVADALLQTDQSLSEKEKAIEVERIKAESAEAAKKMLEEIQKKNEEMMEQKEKSYQEHVKQLTEKMERDRAQLMAEQEKTLALKLQEQERLLKEGFENESKRLQKDIWDIQMRSKSLEPIC
modifications: myc tag
Consider B5, for which the “binding to GMP agarose beads” value in assay [1] is “bound well”. The “binding to GTP agarose beads” value in assay [2] was “bound well”. The “binding to GDP agarose beads” value in assay [3] is “bound well”.
